Assay results taken from patent US20260234272A1 (SCHOLAR ROCK, published 2026).

Tests used:
[1] = molecular target: T1, human LTBP1-proTGFβ1 complex (human, UniProt Q14766 347-1721; P01137 30-390); assay: Octet binning: 500 nM complex pre-incubated with 1 µM first antibody SR-AB10; competitor: second antibody SR-AB13 on AHC tip
T1 construct: Complex of presenting molecule LTBP1 disulfide-linked to a proTGFβ1 homodimer; also called proTGFβ1:LTBP1 complex; LTBP1-TGFβ1 complex
Method: (§1) 500 nM of human LTBP1-proTGFβ1 complex was pre-incubated with 1 μM of each test antibody. After an overnight incubation, the LTBP1-[…] first antibody was tested for binding to a second antibody which was immobilized to an Anti-Human IgG Fc Capture (AHC) sensor tip at 67 nM.
(§2) Binding of the complex to a specific second antibody was normalized to the uninhibited interaction, that is the complex in the presence of HuNeg control antibody. Normalized responses less than 70% or 0.7 of the uninhibited interaction were considered antibodies that cross block.

GARP-proTGFβ1 complex = molecular target: T2, GARP-proTGFβ1 complex (human, UniProt Q14392 20-627; P01137 30-390, limits assumed); assay: Octet, yeast expressed IgG1Agly; concentration not shown
T2 construct: In the cell assays GARP was overexpressed from a human plasmid (whole, on cells); also called GARP-TGFβ1

[2] = molecular target: T1, human LTBP1-proTGFβ1 complex; assay: Octet binning: 500 nM complex pre-incubated with 1 µM first antibody SR-AB10; competitor: second antibody SR-AB10 on AHC tip
Method: as §1, §2

[3] = molecular target: T1, human LTBP1-proTGFβ1 complex; assay: Octet binning: 500 nM complex pre-incubated with 1 µM first antibody SR-AB10; competitor: second antibody SR-AB1 on AHC tip
Method: as §1, §2

[4] = molecular target: T1, human LTBP1-proTGFβ1 complex; assay: Octet binning: 500 nM complex pre-incubated with 1 µM first antibody SR-AB10; competitor: second antibody SR-AB2 on AHC tip
Method: as §1, §2

[5] = molecular target: T1, human LTBP1-proTGFβ1 complex; assay: Octet binning: 500 nM complex pre-incubated with 1 µM first antibody SR-AB2; competitor: second antibody SR-AB1 on AHC tip
Method: as §1, §2

[6] = molecular target: T1, human LTBP1-proTGFβ1 complex; assay: Octet binning: 500 nM complex pre-incubated with 1 µM first antibody SR-AB2; competitor: second antibody SR-AB10 on AHC tip
Method: as §1, §2

[7] = molecular target: T1, human LTBP1-proTGFβ1 complex; assay: Octet binning: 500 nM complex pre-incubated with 1 µM first antibody SR-AB2; competitor: second antibody SR-AB13 on AHC tip
Method: as §1, §2

[8] = molecular target: T1, human LTBP1-proTGFβ1 complex; assay: Octet binning: 500 nM complex pre-incubated with 1 µM first antibody SR-AB2; competitor: second antibody SR-AB2 on AHC tip
Method: as §1, §2

[9] = molecular target: T1, human LTBP1-proTGFβ1 complex; assay: Octet binning: 500 nM complex pre-incubated with 1 µM first antibody SR-AB13; competitor: second antibody SR-AB2 on AHC tip
[10] = molecular target: T1, human LTBP1-proTGFβ1 complex; assay: Octet binning: 500 nM complex pre-incubated with 1 µM first antibody SR-AB13; competitor: second antibody SR-AB10 on AHC tip
[11] = molecular target: T1, human LTBP1-proTGFβ1 complex; assay: Octet binning: 500 nM complex pre-incubated with 1 µM first antibody SR-AB13; competitor: second antibody SR-AB13 on AHC tip
[12] = molecular target: T1, human LTBP1-proTGFβ1 complex; assay: Octet binning: 500 nM complex pre-incubated with 1 µM first antibody SR-AB13; competitor: second antibody SR-AB1 on AHC tip

T1 sequence (Q14766 347-1721 limits assumed, chain 1 of 2): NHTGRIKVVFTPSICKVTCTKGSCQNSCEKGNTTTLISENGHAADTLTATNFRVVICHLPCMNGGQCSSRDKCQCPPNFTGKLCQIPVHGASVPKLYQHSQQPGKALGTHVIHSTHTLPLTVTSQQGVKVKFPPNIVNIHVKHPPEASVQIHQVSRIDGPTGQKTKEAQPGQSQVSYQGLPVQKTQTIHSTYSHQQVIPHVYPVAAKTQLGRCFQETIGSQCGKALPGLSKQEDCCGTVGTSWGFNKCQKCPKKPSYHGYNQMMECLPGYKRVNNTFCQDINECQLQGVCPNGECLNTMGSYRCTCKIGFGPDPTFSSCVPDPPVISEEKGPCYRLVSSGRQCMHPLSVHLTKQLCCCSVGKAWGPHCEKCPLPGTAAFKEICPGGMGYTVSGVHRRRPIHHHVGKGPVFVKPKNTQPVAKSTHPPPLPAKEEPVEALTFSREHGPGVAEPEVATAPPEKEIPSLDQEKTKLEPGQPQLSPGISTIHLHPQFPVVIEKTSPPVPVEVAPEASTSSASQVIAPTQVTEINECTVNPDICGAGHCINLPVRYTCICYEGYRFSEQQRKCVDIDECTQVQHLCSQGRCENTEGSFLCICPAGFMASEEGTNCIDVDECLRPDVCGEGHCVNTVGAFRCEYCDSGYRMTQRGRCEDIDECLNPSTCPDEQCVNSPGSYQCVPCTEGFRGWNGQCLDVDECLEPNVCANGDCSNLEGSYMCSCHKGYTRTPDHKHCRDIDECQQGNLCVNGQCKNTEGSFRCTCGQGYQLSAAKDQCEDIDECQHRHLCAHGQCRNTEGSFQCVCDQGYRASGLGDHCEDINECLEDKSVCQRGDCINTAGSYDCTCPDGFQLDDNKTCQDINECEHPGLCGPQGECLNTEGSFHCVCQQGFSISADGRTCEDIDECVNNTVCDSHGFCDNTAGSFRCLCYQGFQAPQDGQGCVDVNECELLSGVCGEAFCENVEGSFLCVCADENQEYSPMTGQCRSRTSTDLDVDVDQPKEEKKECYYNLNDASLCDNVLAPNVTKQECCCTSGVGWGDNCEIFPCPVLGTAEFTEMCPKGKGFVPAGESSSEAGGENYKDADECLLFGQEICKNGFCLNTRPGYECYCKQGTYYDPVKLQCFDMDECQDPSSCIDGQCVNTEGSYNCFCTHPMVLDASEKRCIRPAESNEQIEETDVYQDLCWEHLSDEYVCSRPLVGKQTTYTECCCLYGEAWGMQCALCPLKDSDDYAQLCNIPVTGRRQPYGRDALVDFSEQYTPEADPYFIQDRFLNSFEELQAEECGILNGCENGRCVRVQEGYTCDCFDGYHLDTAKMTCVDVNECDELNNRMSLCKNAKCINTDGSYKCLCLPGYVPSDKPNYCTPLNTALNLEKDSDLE
T1 sequence (P01137 30-390 limits assumed, chain 2 of 2): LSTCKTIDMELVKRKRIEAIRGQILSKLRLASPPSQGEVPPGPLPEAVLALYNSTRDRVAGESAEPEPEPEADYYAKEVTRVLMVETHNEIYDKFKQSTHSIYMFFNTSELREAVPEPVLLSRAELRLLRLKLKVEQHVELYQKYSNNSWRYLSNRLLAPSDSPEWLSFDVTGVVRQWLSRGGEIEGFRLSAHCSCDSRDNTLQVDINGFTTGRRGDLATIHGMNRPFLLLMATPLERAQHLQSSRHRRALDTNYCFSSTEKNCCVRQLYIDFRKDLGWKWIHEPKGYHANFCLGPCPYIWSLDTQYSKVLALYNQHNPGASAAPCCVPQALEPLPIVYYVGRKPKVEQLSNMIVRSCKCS
T2 sequence (Q14392 20-627 limits assumed, chain 1 of 2): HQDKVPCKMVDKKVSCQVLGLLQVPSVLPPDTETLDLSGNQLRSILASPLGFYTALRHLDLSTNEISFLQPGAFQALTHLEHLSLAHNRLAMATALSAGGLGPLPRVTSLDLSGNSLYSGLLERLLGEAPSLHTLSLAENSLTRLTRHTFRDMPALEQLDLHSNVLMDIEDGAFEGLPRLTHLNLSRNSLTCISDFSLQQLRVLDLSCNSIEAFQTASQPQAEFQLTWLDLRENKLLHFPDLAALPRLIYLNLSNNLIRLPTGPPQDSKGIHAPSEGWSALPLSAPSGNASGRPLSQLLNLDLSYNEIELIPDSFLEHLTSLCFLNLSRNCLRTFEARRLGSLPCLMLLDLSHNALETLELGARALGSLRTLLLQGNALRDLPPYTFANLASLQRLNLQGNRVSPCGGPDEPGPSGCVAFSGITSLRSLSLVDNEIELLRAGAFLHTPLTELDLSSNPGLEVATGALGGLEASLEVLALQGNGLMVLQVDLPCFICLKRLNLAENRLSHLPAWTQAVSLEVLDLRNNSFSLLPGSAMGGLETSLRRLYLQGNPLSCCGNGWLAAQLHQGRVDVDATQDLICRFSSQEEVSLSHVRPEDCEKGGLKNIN
T2 sequence (P01137 30-390 limits assumed, chain 2 of 2): as the sequence (P01137 30-390 limits assumed, chain 2 of 2) above

B1: SR-AB10 (antibody, V domains shown)
VH: QLQLQESGGGVVQPGRSLRLSCAASGFTFNNYPIHWVRQAPGKGLEWVAVMSYDGINKYYADSVKGRFTISRDNSKNTLYLQMNSLRAEDTAVYYCARPRIAARRGGFDYWGQGTLVTVSS
VL: NFMLTQPHSVSESPGKTVTISCTRSSGNIDNNYVQWYQQRPGSSPTTVIYEDNQRPSGVPDRFSGSIDSSSNSASLTISGLKTEDEADYYCQSYDSDNQGVVFGGGTKLTVL
[1]
  normalized response (relative to HuNeg control): 1.27 fraction of uninhibited interaction
GARP-proTGFβ1 complex
  binding result: no binding
[2]
  normalized response (relative to HuNeg control): 0.51 fraction of uninhibited interaction
[3]
  normalized response (relative to HuNeg control): 0.82 fraction of uninhibited interaction
[4]
  normalized response (relative to HuNeg control): 1.53 fraction of uninhibited interaction

B2: SR-AB2 (antibody, V domains shown)
VH: QVQLVQSGAEVKKPGASVKVSCKASGYTFTSYGISWVRQAPGQGLEWMGWISAYNGNTNYAQKLQGRVTMTTDTSTSTAYMELRSLRSDDTAVYYCARAPLGNFDSWGQGTMVTVSS
VL: NFMLTQPHSVSESPGKTVTISCTRSSGSIASNYVQWYQQRPGSSPTTVIYEDNQRPSGVPDRFSGSIDSSSNSASLTISGLKTEDEADYYCQSYDSSNHPVVFGGGTKLTVL
[5]
  normalized response (relative to HuNeg control): 1.11 fraction of uninhibited interaction
[6]
  normalized response (relative to HuNeg control): 1.54 fraction of uninhibited interaction
[7]
  normalized response (relative to HuNeg control): 1.31 fraction of uninhibited interaction
[8]
  normalized response (relative to HuNeg control): 0.47 fraction of uninhibited interaction

B3: SR-AB13 (antibody, V domains shown)
VH: QLQLQESGPGLVKPSETLSLTCTVSGGSISSSSYYWGWIRQPPGKGLEWIGSISYSGSTYYNPSLKSRVTISVDTSKNQFSLKLSSVTAADTAVYYCARDPSYDSIAGMDVWGQGTTVTVSS
VL: DIQLTQSPSSLSASVGDRVTITCRASQSISSYLNWYQQKPGKAPKLLIYAASNLQSGVPSRFSGSGSGTDFTLTISSLQPEDFATYYCQQSFDFPFTFGGGTKVEIK
[9]
  normalized response (relative to HuNeg control): 1.29 fraction of uninhibited interaction
[10]
  normalized response (relative to HuNeg control): 1.38 fraction of uninhibited interaction
[11]
  normalized response (relative to HuNeg control): 0.47 fraction of uninhibited interaction
[12]
  normalized response (relative to HuNeg control): 1.08 fraction of uninhibited interaction
